From article PMC9482650, “Quantitative fragmentomics allow affinity mapping of interactomes” (Nature Communications, 2022)

Columns and labels:
Assay in all cases: holdup assay
Parameters in all cases: key: below the threshold = too weak to quantify, mostly under pKd 3.1 to 4
RADIL, Q96JH8 = molecular target: T1, RADIL, Q96JH8
T1 sequence (Q96JH8 971-1071, limits assumed, looked up): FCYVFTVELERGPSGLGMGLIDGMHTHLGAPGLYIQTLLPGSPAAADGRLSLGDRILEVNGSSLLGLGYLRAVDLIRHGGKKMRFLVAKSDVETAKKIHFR

TIAM2, Q8IVF5 = molecular target: T2, TIAM2, Q8IVF5
T2 sequence (Q8IVF5 885-986, limits assumed, looked up): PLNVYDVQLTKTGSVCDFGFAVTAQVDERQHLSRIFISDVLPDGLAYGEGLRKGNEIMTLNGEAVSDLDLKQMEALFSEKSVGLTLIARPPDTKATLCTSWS

GORASP2, Q9H8Y8 = molecular target: GORASP2, Q9H8Y8
HTRA3, P83110 = molecular target: T3, HTRA3, P83110
T3 sequence (P83110 354-453, limits assumed, looked up): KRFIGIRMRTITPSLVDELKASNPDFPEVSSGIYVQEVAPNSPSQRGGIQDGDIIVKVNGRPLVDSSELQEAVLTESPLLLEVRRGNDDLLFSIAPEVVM

DLG3_2, Q92796 = molecular target: T4, DLG3_2, Q92796
T4 sequence (Q92796 221-321, limits assumed, looked up): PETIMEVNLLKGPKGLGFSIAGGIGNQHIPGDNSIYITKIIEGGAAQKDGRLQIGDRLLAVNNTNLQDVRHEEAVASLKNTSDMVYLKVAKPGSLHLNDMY

PDZRN3_1, Q9UPQ7 = molecular target: T5, PDZRN3_1, Q9UPQ7
T5 sequence (Q9UPQ7 244-349, limits assumed, looked up): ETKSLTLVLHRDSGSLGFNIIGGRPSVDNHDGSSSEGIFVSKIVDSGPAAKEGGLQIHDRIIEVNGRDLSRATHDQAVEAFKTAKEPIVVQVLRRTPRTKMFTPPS

DLG5_1, Q8TDM6 = molecular target: DLG5_1, Q8TDM6
DFNB31_1, Q9P202 = molecular target: T6, DFNB31_1, Q9P202
T6 sequence (Q9P202 135-233, limits assumed, looked up): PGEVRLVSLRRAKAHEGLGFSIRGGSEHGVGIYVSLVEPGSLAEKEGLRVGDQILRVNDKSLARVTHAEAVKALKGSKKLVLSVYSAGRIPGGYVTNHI

Inadl_9, Q8NI35 = molecular target: Inadl_9, Q8NI35
PICK1, Q9NRD5 = molecular target: PICK1, Q9NRD5
GRIP1_4, Q9Y3R0 = molecular target: T7, GRIP1_4, Q9Y3R0
T7 sequence (Q9Y3R0 467-571, limits assumed, looked up): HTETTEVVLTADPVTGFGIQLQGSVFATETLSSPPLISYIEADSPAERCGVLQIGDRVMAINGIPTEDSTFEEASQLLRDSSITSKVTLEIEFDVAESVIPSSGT

NOS1, P29475 = molecular target: NOS1, P29475
TJP1_3, Q07157 = molecular target: TJP1_3, Q07157
LNX1_2, Q8TBB1 = molecular target: LNX1_2, Q8TBB1
GRASP, Q7Z6J2 = molecular target: GRASP, Q7Z6J2
DFNB31_3, Q9P202 = molecular target: T8, DFNB31_3, Q9P202
T8 sequence (Q9P202 811-907, limits assumed, looked up): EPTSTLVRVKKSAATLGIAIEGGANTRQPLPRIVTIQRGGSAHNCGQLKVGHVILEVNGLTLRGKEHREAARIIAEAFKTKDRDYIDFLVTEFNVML

MAGI2_2, Q86UL8 = molecular target: MAGI2_2, Q86UL8
GRID2IP_2, A4D2P6 = molecular target: GRID2IP_2, A4D2P6
GRIP2_4, Q9C0E4 = molecular target: GRIP2_4, Q9C0E4
FRMPD3, Q5JV73 = molecular target: FRMPD3, Q5JV73
IL16_3, Q14005 = molecular target: IL16_3, Q14005
MPDZ_12, O75970 = molecular target: T9, MPDZ_12, O75970
T9 sequence (O75970 1857-1958, limits assumed, looked up): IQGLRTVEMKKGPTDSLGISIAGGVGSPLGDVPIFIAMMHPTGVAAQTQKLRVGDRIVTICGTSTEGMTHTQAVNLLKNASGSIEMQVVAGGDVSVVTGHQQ

APBA3_1, O96018 = molecular target: T10, APBA3_1, O96018
T10 sequence (O96018 389-490, limits assumed, looked up): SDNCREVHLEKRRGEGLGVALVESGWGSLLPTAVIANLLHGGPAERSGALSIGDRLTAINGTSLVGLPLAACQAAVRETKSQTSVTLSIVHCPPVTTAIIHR

GRIP2_6, Q9C0E4 = molecular target: GRIP2_6, Q9C0E4
IL16_4, Q14005 = molecular target: IL16_4, Q14005
MPP2, Q14168 = molecular target: T11, MPP2, Q14168
T11 sequence (Q14168 180-250, limits assumed, looked up): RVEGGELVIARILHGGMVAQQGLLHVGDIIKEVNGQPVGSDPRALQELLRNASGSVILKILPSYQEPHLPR

[1] = plain residues with an end cap or a label only (N-terminal biotin on a linker: ttds)
[2] = plain residues with an end cap or a label only (N-terminal biotin on a linker: ahx)
[3] = plain residues with an end cap or a label only (N-terminal biotin on a linker: gsgsgs; C-terminal amide)

Chain of FRMPD3, Q5JV73 (Q5JV73 12-100): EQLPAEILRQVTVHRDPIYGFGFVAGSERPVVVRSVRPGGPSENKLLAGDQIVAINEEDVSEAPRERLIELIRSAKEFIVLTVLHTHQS
Chain of DLG5_1, Q8TDM6 (Q8TDM6 617-713): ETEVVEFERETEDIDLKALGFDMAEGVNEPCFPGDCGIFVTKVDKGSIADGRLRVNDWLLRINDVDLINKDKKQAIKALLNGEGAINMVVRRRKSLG
Chain of MAGI2_2, Q86UL8 (Q86UL8 410-522): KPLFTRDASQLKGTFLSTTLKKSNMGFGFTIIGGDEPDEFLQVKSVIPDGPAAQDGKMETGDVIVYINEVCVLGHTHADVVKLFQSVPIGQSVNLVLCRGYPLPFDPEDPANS
Chain of IL16_4, Q14005 (Q14005 1229-1329): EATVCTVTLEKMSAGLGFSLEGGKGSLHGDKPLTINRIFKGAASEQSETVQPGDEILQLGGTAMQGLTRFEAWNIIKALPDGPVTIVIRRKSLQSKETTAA
Chain of GRIP2_4, Q9C0E4 (Q9C0E4 446-548): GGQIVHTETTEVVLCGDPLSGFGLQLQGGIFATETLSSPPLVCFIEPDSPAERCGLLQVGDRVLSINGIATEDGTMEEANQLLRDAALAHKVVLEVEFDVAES
Chain of Inadl_9, Q8NI35 (Q8NI35 1530-1615): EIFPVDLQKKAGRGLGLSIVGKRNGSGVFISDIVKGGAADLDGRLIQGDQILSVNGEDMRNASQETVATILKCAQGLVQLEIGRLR
Chain of GRASP, Q7Z6J2 (Q7Z6J2 96-193): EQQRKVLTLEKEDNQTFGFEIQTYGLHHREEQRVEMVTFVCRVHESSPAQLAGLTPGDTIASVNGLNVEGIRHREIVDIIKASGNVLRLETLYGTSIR
Chain of IL16_3, Q14005 (Q14005 1107-1207): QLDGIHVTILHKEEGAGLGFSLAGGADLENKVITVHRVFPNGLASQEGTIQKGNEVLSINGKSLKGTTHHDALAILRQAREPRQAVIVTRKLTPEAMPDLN
Chain of GRIP2_6, Q9C0E4 (Q9C0E4 648-740): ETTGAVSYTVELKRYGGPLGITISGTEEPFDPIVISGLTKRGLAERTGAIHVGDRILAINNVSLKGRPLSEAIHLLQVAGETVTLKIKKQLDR
Chain of LNX1_2, Q8TBB1 (Q8TBB1 371-470): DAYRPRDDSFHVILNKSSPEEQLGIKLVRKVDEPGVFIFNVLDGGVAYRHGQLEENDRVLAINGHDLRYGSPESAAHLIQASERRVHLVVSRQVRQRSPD
Chain of PICK1, Q9NRD5 (Q9NRD5 17-115): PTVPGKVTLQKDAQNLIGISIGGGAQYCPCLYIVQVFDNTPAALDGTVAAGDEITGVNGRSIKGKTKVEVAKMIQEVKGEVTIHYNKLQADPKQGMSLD
Chain of GRID2IP_2, A4D2P6 (A4D2P6 272-370): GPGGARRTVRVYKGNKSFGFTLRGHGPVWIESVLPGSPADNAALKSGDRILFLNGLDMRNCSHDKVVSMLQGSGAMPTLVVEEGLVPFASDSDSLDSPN
Chain of TJP1_3, Q07157 (Q07157 416-512): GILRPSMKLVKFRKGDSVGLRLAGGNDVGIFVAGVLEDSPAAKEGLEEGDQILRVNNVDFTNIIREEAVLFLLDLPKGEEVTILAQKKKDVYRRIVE
Chain of NOS1, P29475 (P29475 9-101): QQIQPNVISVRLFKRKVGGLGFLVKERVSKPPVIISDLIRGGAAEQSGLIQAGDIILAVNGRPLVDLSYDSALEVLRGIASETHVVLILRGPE

RPLPRKVSQL [DOCK4, Q8N1I0]
pKd (RADIL, Q96JH8; [1]): below the threshold
pKd (TIAM2, Q8IVF5; [1]): below the threshold
pKd (GORASP2, Q9H8Y8; [1]): 4.85
pKd (HTRA3, P83110; [1]): below the threshold
pKd (DLG3_2, Q92796; [1]): below the threshold
pKd (PDZRN3_1, Q9UPQ7; [1]): 3.64
pKd (DLG5_1, Q8TDM6; [1]): below the threshold
pKd (DFNB31_1, Q9P202; [1]): below the threshold
pKd (Inadl_9, Q8NI35; [1]): below the threshold
pKd (PICK1, Q9NRD5; [1]): below the threshold
pKd (GRIP1_4, Q9Y3R0; [1]): below the threshold
pKd (NOS1, P29475; [1]): below the threshold
pKd (TJP1_3, Q07157; [1]): below the threshold
pKd (LNX1_2, Q8TBB1; [1]): below the threshold
pKd (GRASP, Q7Z6J2; [1]): 3.93
pKd (DFNB31_3, Q9P202; [1]): below the threshold
pKd (MAGI2_2, Q86UL8; [1]): 4.6
pKd (GRID2IP_2, A4D2P6; [1]): 4.19
pKd (GRIP2_4, Q9C0E4; [1]): below the threshold
pKd (FRMPD3, Q5JV73; [1]): below the threshold
pKd (IL16_3, Q14005; [1]): below the threshold
pKd (MPDZ_12, O75970; [1]): below the threshold
pKd (APBA3_1, O96018; [1]): below the threshold
pKd (GRIP2_6, Q9C0E4; [1]): below the threshold
pKd (IL16_4, Q14005; [1]): below the threshold
pKd (MPP2, Q14168; [1]): below the threshold

RAVEEEESRF [PSCDBP, O60759]
pKd (RADIL, Q96JH8; [2]): below the threshold
pKd (TIAM2, Q8IVF5; [2]): below the threshold
pKd (GORASP2, Q9H8Y8; [2]): below the threshold
pKd (HTRA3, P83110; [2]): below the threshold
pKd (DLG3_2, Q92796; [2]): below the threshold
pKd (PDZRN3_1, Q9UPQ7; [2]): below the threshold
pKd (DLG5_1, Q8TDM6; [2]): below the threshold
pKd (DFNB31_1, Q9P202; [2]): below the threshold
pKd (Inadl_9, Q8NI35; [2]): below the threshold
pKd (PICK1, Q9NRD5; [2]): below the threshold
pKd (GRIP1_4, Q9Y3R0; [2]): below the threshold
pKd (NOS1, P29475; [2]): 3.62
pKd (TJP1_3, Q07157; [2]): below the threshold
pKd (LNX1_2, Q8TBB1; [2]): below the threshold
pKd (GRASP, Q7Z6J2; [2]): below the threshold
pKd (DFNB31_3, Q9P202; [2]): below the threshold
pKd (MAGI2_2, Q86UL8; [2]): below the threshold
pKd (GRID2IP_2, A4D2P6; [2]): below the threshold
pKd (GRIP2_4, Q9C0E4; [2]): below the threshold
pKd (FRMPD3, Q5JV73; [2]): below the threshold
pKd (IL16_3, Q14005; [2]): below the threshold
pKd (MPDZ_12, O75970; [2]): below the threshold
pKd (APBA3_1, O96018; [2]): below the threshold
pKd (GRIP2_6, Q9C0E4; [2]): below the threshold
pKd (IL16_4, Q14005; [2]): below the threshold
pKd (MPP2, Q14168; [2]): below the threshold

RRRKRKRTYL [HPV49-L2, P36762]
pKd (RADIL, Q96JH8; [2]): below the threshold
pKd (TIAM2, Q8IVF5; [2]): below the threshold
pKd (GORASP2, Q9H8Y8; [2]): 4.81
pKd (HTRA3, P83110; [2]): below the threshold
pKd (DLG3_2, Q92796; [2]): below the threshold
pKd (PDZRN3_1, Q9UPQ7; [2]): 3.51
pKd (DLG5_1, Q8TDM6; [2]): below the threshold
pKd (DFNB31_1, Q9P202; [2]): 3.58
pKd (Inadl_9, Q8NI35; [2]): below the threshold
pKd (PICK1, Q9NRD5; [2]): 3.47
pKd (GRIP1_4, Q9Y3R0; [2]): 4.04
pKd (NOS1, P29475; [2]): 3.71
pKd (TJP1_3, Q07157; [2]): below the threshold
pKd (LNX1_2, Q8TBB1; [2]): below the threshold
pKd (GRASP, Q7Z6J2; [2]): 4.37
pKd (DFNB31_3, Q9P202; [2]): 4.25
pKd (MAGI2_2, Q86UL8; [2]): 5.33
pKd (GRID2IP_2, A4D2P6; [2]): 5.11
pKd (GRIP2_4, Q9C0E4; [2]): 4.37
pKd (FRMPD3, Q5JV73; [2]): 3.5
pKd (IL16_3, Q14005; [2]): below the threshold
pKd (MPDZ_12, O75970; [2]): below the threshold
pKd (APBA3_1, O96018; [2]): below the threshold
pKd (GRIP2_6, Q9C0E4; [2]): below the threshold
pKd (IL16_4, Q14005; [2]): below the threshold
pKd (MPP2, Q14168; [2]): 3.74

YGIVQETTFDLGGDIH [MLLT4_int, P55196]
pKd (RADIL, Q96JH8; [3]): below the threshold
pKd (TIAM2, Q8IVF5; [3]): 3.98
pKd (GORASP2, Q9H8Y8; [3]): below the threshold
pKd (HTRA3, P83110; [3]): below the threshold
pKd (DLG3_2, Q92796; [3]): 4.21
pKd (PDZRN3_1, Q9UPQ7; [3]): below the threshold
pKd (DLG5_1, Q8TDM6; [3]): below the threshold
pKd (DFNB31_1, Q9P202; [3]): below the threshold
pKd (Inadl_9, Q8NI35; [3]): below the threshold
pKd (PICK1, Q9NRD5; [3]): below the threshold
pKd (GRIP1_4, Q9Y3R0; [3]): below the threshold
pKd (NOS1, P29475; [3]): below the threshold
pKd (TJP1_3, Q07157; [3]): below the threshold
pKd (LNX1_2, Q8TBB1; [3]): below the threshold
pKd (GRASP, Q7Z6J2; [3]): below the threshold
pKd (DFNB31_3, Q9P202; [3]): 3.83
pKd (MAGI2_2, Q86UL8; [3]): below the threshold
pKd (GRID2IP_2, A4D2P6; [3]): below the threshold
pKd (GRIP2_4, Q9C0E4; [3]): below the threshold
pKd (FRMPD3, Q5JV73; [3]): below the threshold
pKd (IL16_3, Q14005; [3]): below the threshold
pKd (MPDZ_12, O75970; [3]): below the threshold
pKd (APBA3_1, O96018; [3]): below the threshold
pKd (GRIP2_6, Q9C0E4; [3]): below the threshold
pKd (IL16_4, Q14005; [3]): below the threshold
pKd (MPP2, Q14168; [3]): below the threshold
